Reference: paper PMC3285579

Experiments:
[1] = target: MBP-WSP-1(334 aa-608 aa) (C. elegans); test: pull-down; MBP pull-down with competitors (Figure 6B): MBP-WSP-1 on amylose resin; soluble extracts of GST-NCK-1 F.L., GST-UNC-34 F.L. and His-VAB-1 as load; band intensities quantified from at least two independent blots with Image J; wash 20 mM Tris-Cl pH 7.5, 200 mM NaCl, 1 mM EDTA, 1 mM DTT
[2] = target: GST-NCK-1 F.L., full length NCK-1 (1 aa-397 aa) (C. elegans); test: as above

Chain of MBP-WSP-1(334 aa-608 aa) (C. elegans) (main, as listed by the source): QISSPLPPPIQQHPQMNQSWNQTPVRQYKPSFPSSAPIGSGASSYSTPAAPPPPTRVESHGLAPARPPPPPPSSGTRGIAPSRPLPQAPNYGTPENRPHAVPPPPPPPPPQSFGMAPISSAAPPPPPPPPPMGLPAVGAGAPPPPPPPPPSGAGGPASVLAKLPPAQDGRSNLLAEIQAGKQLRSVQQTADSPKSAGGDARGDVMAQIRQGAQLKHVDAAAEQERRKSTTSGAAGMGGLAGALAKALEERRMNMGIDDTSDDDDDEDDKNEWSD

| relative intensity of NCK-1 pulled down by MBP-WSP-1 with UNC-34 and VAB-1 added (NCK-1 alone = 1.0) [1] | relative intensity of NCK-1 pulled down by MBP-WSP-1 with UNC-34 added (without UNC-34 = 1.0) [2] | Substance |
| --- | --- | --- |
| 1.3 | – | GST-NCK-1 F.L., full length NCK-1 (1 aa-397 aa) (natural protein) |
| – | 0.3 | GST-UNC-34 F.L., full length UNC-34 (1 aa-454) (natural protein) |
